WO2022250107A1 (dated 2022)

Biological target: S protein of SARS-CoV-2 wild strain JPN/TY/WK-521 (on infectious virus) (SARS-CoV-2, UniProt P0DTC2 14-1273)
Experiment: cell-based or functional assay

B1: EV053273 (antibody, V domains shown)
VH: QVQLVQSGAEVKEPGTSVKVSCKASGYIFTGYYIHWVRQAPGQGLEWMGWINPNSGGRNYTQKFQGRVTMTRDKSISTVYMELSGLRSDDTAIYYCARDNSWSTVQFCLDYWGQGTLVTVSS
VL: QSALTQPPSASGSPGQSVTISCTGTSSDVGSYNYVSWYQQYPGKAPKLMIYEVSKRPSGVPDRFSGSKSGNTASLTVSGLQAEDEADYYCSSYGGSNNLVFGGGTKLTVLG
中和活性 IC50 (inhibition of infection of VeroE6/TMPRSS2 cells): ≤ 10 ng/mL
